From publication doi:10.1101/2023.03.09.531850 come the findings set out here.

One may read the stoichiometry N as a count of units in the complex or per binding partner.

This assay has as its target EcbAgaN (Escherichia coli long-B pAgo-associated nuclease) (Escherichia coli). Nature of the assay: SEC-MALS. In general terms: SEC sorts molecules by how far they enter the pores of the column.

“EcbAgaN (Escherichia coli long-B pAgo-associated nuclease) (enzyme)” had a stoichiometry N of 2.
